Experimental data: US20100190689

Experiments:
Assay in all cases: filter
MBNL1-42 (Homo sapiens) = target: T1, MBNL1-42 (Homo sapiens) (UniProt Q9NR56); details: stated collectively for 41 and 42 kD isoforms
T1 sequence: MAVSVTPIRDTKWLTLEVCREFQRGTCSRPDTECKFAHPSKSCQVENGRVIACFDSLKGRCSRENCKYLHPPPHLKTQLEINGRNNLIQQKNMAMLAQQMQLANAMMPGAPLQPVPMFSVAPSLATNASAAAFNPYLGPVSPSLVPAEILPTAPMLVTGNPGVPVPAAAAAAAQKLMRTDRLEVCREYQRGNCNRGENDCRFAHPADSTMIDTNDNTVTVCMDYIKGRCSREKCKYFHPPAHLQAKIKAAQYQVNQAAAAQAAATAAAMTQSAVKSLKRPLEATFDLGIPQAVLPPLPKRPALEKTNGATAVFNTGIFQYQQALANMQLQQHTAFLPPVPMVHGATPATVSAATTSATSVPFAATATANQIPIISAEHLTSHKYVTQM

[1] = tested on: T2, GST-MBNL1-41 full length (Homo sapiens), Q9NR56-5; details: GST has no significant influence on binding; same buffer
T2 sequence: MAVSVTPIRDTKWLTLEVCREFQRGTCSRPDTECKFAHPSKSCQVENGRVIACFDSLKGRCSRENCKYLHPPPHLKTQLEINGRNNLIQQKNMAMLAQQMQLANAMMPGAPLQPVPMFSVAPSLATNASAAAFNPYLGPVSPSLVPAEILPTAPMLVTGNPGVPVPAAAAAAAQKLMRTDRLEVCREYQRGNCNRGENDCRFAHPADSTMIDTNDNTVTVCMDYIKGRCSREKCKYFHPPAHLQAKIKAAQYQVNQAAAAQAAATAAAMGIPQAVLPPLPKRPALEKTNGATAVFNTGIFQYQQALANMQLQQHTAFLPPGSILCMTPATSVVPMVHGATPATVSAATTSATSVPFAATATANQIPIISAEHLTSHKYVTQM

[2] = tested on: T3, GST-MBNL1-41-del105 deletion of C-terminal 105 aa (all four zinc fingers kept) (Homo sapiens), Q9NR56-5; details: C-terminal deletion has no significant influence on binding; same buffer
T3 sequence: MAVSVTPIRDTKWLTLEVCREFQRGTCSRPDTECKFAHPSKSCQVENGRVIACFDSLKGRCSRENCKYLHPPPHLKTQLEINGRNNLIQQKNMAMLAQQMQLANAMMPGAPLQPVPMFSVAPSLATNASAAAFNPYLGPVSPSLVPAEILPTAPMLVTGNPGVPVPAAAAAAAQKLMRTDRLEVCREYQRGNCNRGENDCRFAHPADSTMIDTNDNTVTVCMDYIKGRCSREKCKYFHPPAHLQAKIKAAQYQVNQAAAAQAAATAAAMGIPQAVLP

[3] = tested on: T4, MBNL1-41 full length, GST cleaved (Homo sapiens), Q9NR56-5; details: nitrocellulose filter; 50 mM Tris pH 8.0, 50 mM NaCl, 50 mM KCl, 1 mM Mg, 0.1 mM DTT; value stated for all forms tested
T4 sequence: T2 sequence

Measured: Kd

CUG [poly(CUG)109]
10 nM: all assays above
